The nature of data set [1]: Isothermal equilibrium denaturation in guanidine HCl monitored by CD. It is filed as physicochemical. The conditions noted are these: for Cm / m-value / ΔG0: GuHCl, 298K, CD signal at 227 nm; for ΔΔG: relative to WT*, negative value = more stable. The procedure:
Protein samples were equilibrated overnight in 20 mM N-2-(acetamido)iminodiacetic acid (ADA), 100 mM NaCl pH 6.60 at 298K in 0.1M increments of guanidine HCl (GuHCl). All samples contained a final protein concentration of 25 μM. An Aviv model 202 circular dichroism spectrometer (Proterion Corp., Piscataway, N.J.) equipped with a Peltier controlled temperature unit maintaining a constant temperature of 298K was used for all spectroscopic measurements. For each sample, triplicate scans were collected and averaged. Buffer traces were collected, averaged and subtracted from the sample traces. Data smoothing was performed prior to buffer subtraction using a 5-point Fourier transform filter. The denaturation process was monitored by observing the change in CD signal at 227 nm with increasing GuHCl, according to published references. The general purpose non-linear least squares fitting program DataFit™ (Oakdale Engineering, Oakdale Pa.) was used to fit the change in molar ellipticity at 227 nm versus GuHCl concentration to a six parameter two state model: F=(F0N+SN[D]+F0D+SD[D])e^−((ΔG0+m[D]/RT)/1+e^−((ΔG0+m[D]/RT) (1) where [D] is the denaturant concentration, F0N and F0D are the 0M denaturant molar ellipticity intercepts for the native and denatured states, respectively, and SN and SD are the slopes of the native and denatured state baselines, respectively. ΔG0 and m describe the linear function of the unfolding free energy versus denaturant concentration at 298K. The effect of a given mutation upon the stability of the protein (ΔΔG) was calculated by taking the difference between the Cm values for WT* and mutant and multiplying by the average of the m values, as described by Pace and Scholtz (Measuring the conformational stability of a protein; in Protein Structure: A Practical Approach, Creighton, T. E., ed., pp. 299-321, Oxford University Press, Oxford; 1997): ΔΔG=(CmWT*−Cm mutant)(mWT*+mmutant)/2 (2) Folding Kinetics Measurements.
Previous studies by others of the stability and folding of FGF-1 have been performed by monitoring the fluorescence signal of the single buried Trp 107 in FGF-1. This Trp in the WT* structure is somewhat unusual in that it is more highly quenched in the native state than the denatured. […] We have previously compared the fluorescence and CD spectroscopic response of FGF-1 to denaturation by GuHCl and shown essentially indistinguishable results for both his-tagged and non-his-tagged forms. A tabulation of the mutant thermodynamic data from isothermal equilibrium denaturation, monitored by CD signal, is listed in Table II. The data in this table for the SYM6 mutant are from our previously published isothermal equilibrium denaturation study monitored by fluorescence.

Another data set deals with NIH 3T3 fibroblasts. Put plainly: Cell proliferation (mitogenic activity) assay. It counts as cell-based. The settings on record: NIH 3T3 fibroblasts; for EC50 (effective concentration for 50% maximal stimulation): 48 hours. The procedure: NIH 3T3 fibroblasts were initially plated in Dulbecco's modified Eagle's medium (DMEM) (American Type Culture Collection, Manassas Va.) supplemented with 10% (v/v) newborn calf serum (NCS) (Sigma, St. Louis Mo.), 100 units of penicillin, 100 μg streptomycin, 0.25 μg Fungizone™ and 0.01 mg/ml gentamicin (Gibco, Carlsbad Calif.) (“serum-rich” medium) in T75 tissue culture flasks (Fisher, Pittsburgh Pa.). The cultures were incubated at 37° C. and all cell growth was performed with 5% CO2 supplementation. At approximately 80% cell confluence, the cells were washed with 5 ml cold 0.14M NaCl, 5.1 mM KCl, 0.7 mM Na2HPO4 and 24.8 mM Trizma® base, pH 7.4 (TBS) and subsequently treated with 5 ml of a 0.025% trypsin solution (Invitrogen Corp., Carlsbad Calif.). Cell synchronization was initiated by serum starvation in DMEM with 0.5% NCS, 100 units of penicillin, 100 μg streptomycin, 0.25 μg Fungizone™ and 0.01 mg/ml gentamicin (“starvation” medium). The cells were seeded in T25 tissue culture flasks (Fisher, Pittsburgh, Pa.) at a cell density of 3.0×10^4 cells/cm^2 (representing ˜20% confluence). Duplicate flasks were used for each protein concentration. Cultures were incubated for 48 hours at 37° C., the medium was then decanted and replaced with fresh medium supplemented with the appropriate concentration of FGF-1 polypeptide, and incubated for an additional 48 hours. After this incubation, the medium was decanted and the cells were washed with 1 ml cold TBS pH 7.4. 1 ml of 0.025% trypsin was then added to release the cells from the flask surface, and 2 ml of serum-rich medium were added to dilute and inhibit the trypsin. The cells were counted using a hemocytometer (Hausser Scientific Partnership, Horsham Pa.). Experiments were performed in quadruplicate and the cell densities were averaged. The relationship between the cell number and log concentration of added growth factor was fit to a sigmoidal function.
Mitogenic activity towards NIH 3T3 fibroblasts was determined for WT*, SYM5, SYM5Δ104-106, SYM5Δ120-122, and SYM6ΔΔ mutants. […] The NIH 3T3 fibroblast proliferative activity of WT* FGF-1 yielded an effective concentration for 50% maximal stimulation (EC50) of 60 ng/ml (FIG. 3).

Where “and” joins values, the source holds several entries; their conditions need not be identical. Equal values may be shown once.

In data set [1], “WT*: Wild type (his-tagged) 140 amino acid form of human FGF-1, SEQ ID NO: 4 [reference compound]” displayed a Cm of 1.06 ± 0.01 M, a m-value of 20.1 ± 0.5 kJ/mol M, a ΔG0 of 5.09 ± 0.19 kcal/mol and a ΔΔG of 0 kcal/mol. For the same molecule, in the data set with NIH 3T3 fibroblasts, the “EC50 (effective concentration for 50% maximal stimulation)” value came out at 0.06 µg/mL.

B1: SYM5/Δ120-122: SYM5 FGF-1 mutant plus Arg119→Gly/ΔGly120/ΔPro121/ΔArg122, SEQ ID NO: 2 (protein)
chain: FNLPPGNYKKPKLLYCSNGGHFLRILPDGTVDGTRDRSDQHIQFQLSAESVGEVYIKSTETGQYLAMDTDGLVYGSQTPNEECLFLERLEENHYNTYISKKHAEKNWFLGIKKNGSVKGTHYGQKAILFLPLPVSSD
modifications: Human FGF-1 mutant SYM5D120-122
In data set [1], B1 displayed a Cm of 1.00 ± 0.02 M, a m-value of 16.6 ± 0.5 kJ/mol M, a ΔG0 of 3.97 ± 0.12 kcal/mol and a ΔΔG of 0.263 kcal/mol. In the data set with NIH 3T3 fibroblasts, the “EC50 (effective concentration for 50% maximal stimulation)” value was 0.0021 µg/mL.

B2: SYM5/Δ104-106: SYM5 FGF-1 mutant plus Ala103→Gly/ΔGlu104/ΔLys105/ΔAsn106 (protein, UniProt P05230 16-155, looked up, variant L44F L73V V109L L111I C117V A103G del104-106)
Fibroblast growth factor 1: FNLPPGNYKKPKLLYCSNGGHFLRILPDGTVDGTRDRSDQHIQFQLSAESVGEVYIKSTETGQYLAMDTDGLVYGSQTPNEECLFLERLEENHYNTYISKKHGWFLGIKKNGSVKRGPRTHYGQKAILFLPLPVSSD
In the case of B2, in data set [1], the Cm worked out at 1.47 ± 0.01 M, the m-value worked out at 17.2 ± 0.5 kJ/mol M, the ΔG0 was 6.05 ± 0.22 kcal/mol and the ΔΔG is -1.82 kcal/mol. Also, in the data set on NIH 3T3 fibroblasts, the “mitogenic activity in comparison to WT* (in words)” value (“mitogenic activity in comparison” below) is reported as “approximately two-fold less mitogenic activity” and the “EC50 (effective concentration for 50% maximal stimulation)” value amounted to 0.115 µg/mL.

B3: SYM5: FGF-1 core mutant Leu44→Phe/Leu73→Val/Val109→Leu/Leu111→Ile/Cys117→Val (protein, UniProt P05230 16-155, looked up, variant L44F L73V V109L L111I C117V)
Fibroblast growth factor 1: FNLPPGNYKKPKLLYCSNGGHFLRILPDGTVDGTRDRSDQHIQFQLSAESVGEVYIKSTETGQYLAMDTDGLVYGSQTPNEECLFLERLEENHYNTYISKKHAEKNWFLGIKKNGSVKRGPRTHYGQKAILFLPLPVSSD
In the case of B3, in data set [1], the Cm was 1.05 ± 0.01 M, the m-value was determined as 17.5 ± 0.3 kJ/mol M, the ΔG0 was 4.4 ± 0.096 kcal/mol and the ΔΔG was 0.048 kcal/mol. For the same molecule, the “effect on stability of insertion of both loop regions” value in data set [1] (relative to SYM5ΔΔ) is recorded as “+15.0 kJ/mol”. The “mitogenic activity in comparison” value in the data set on NIH 3T3 fibroblasts is “essentially identical results as WT*”.

B4: SYM6/ΔΔ: SYM6 FGF-1 mutant plus both Δ104-106 and Δ120-122 deletion mutations, SEQ ID NO: 1 (protein)
chain: FNLPPGNYKKPKLLYCSNGGHFLRILPDGTVDGTRDRSDQHIQFQLSAESVGEVYIKSTETGQYLAIDTDGLVYGSQTPNEECLFLERLEENHYNTYISKKHGWFLGIKKNGSVKGTHYGQKAILFLPLPVSSD
modifications: Human FGF-1 mutant SYM6DD
For the molecule B4, in data set [1], the Cm is on record as 1.91 ± 0.02 M, the m-value was found to be 17.7 ± 0.4 kJ/mol M, the ΔG0 is 8.1 ± 0.14 kcal/mol and the ΔΔG was -3.85 kcal/mol. The “increase in protein stability” value in data set [1] (in comparison to WT*) was 3.85 kcal/mol and ~3.82 kcal/mol. For the same molecule, in the data set with NIH 3T3 fibroblasts, the “mitogenic activity in comparison” value is “almost two orders of magnitude more potent” and the “EC50 (effective concentration for 50% maximal stimulation)” value was 0.00084 µg/mL.
